Measurements: PMC7857584

How the values were obtained:
MLA10-cLUC (barley) = MLA10-cLUC (barley) (UniProt Q6WWJ4)

AVRA10-nLUC (natural protein)
reduction of relative LUC activity (proxy for cell death) in barley protoplasts co-expressing AVRa10 and Mla22Lrr10, against the empty vector (% reduction of relative LUC activity) (MLA22LRR10-cLUC (barley)): 40
LUC activity (proxy for cell viability) in barley protoplasts co-expressing Mla10 and AVRa10, against Mla10 with AVRa22 (% lower LUC activity) (MLA10-cLUC (barley)): 50
